{
  "source": "paper PMC6987408",
  "about": "“Structural Insights Into the Transcriptional Regulation of HigBA Toxin–Antitoxin System by Antitoxin HigA in Pseudomonas aeruginosa” (Frontiers in Microbiology, 2019)",
  "key": {"[1]": {"biological_target": "PaHigA (Pseudomonas aeruginosa PAO1) (UniProt Q9HVC1)", "experiment": "ITC", "conditions": "ITC: 20 mM Tris pH 8.0, 100 mM NaCl, 5% glycerol, 20 C, 400 uM DNA into 100 uM PaHigA; EMSA: DNA annealed in 10 mM NaCl, 20 mM Tris pH 8.0, 30 min at room …"}, "[2]": {"biological_target": "the molecule itself", "experiment": "SAXS; apo PaHigA in solution at 1, 3 and 5 mg/ml, 22°C; oligomeric state from the fit to the dimer's theoretical curve and from the calculated molecular mass"}, "[3]": {"biological_target": "PaHigA (Pseudomonas aeruginosa PAO1, UniProt Q9HVC1 1-101)", "experiment": "crystal structure; 2.50 A; water-mediated contacts; ITC: 20 mM Tris pH 8.0, 100 mM NaCl, 5% glycerol, 20 C, 400 uM DNA into 100 uM PaHigA; EMSA: DNA annealed in 10 mM NaCl, 20 mM Tris pH 8.0, 30 min at room temperature, 5% native gel at 20 C", "conditions": "protein: recombinant; tags: C-terminal His6; chain copies: 4"}},
  "data": [
    {"molecule": "PhigBA 28-bp duplex", "values": [
      {"measurement": "Ka", "setting": "[1]", "result": "7.5e+13", "unit": "M^-2"}
    ]},
    {"molecule": "PaHigA (Pseudomonas aeruginosa antitoxin HigA) (natural protein, Pseudomonas aeruginosa PAO1, UniProt Q9HVC1 1-101, looked up, Antitoxin HigA of P. aeruginosa PAO1, gene higA (PA4674), full length amplified from the PAO1 genome; Cloned NcoI/BamHI into pET28b with a C-terminal His tag; the construct comes from Guo et al., 2019; also called PaHigA-His; apo PaHigA; source: E. coli BL21(DE3) pLysS, purified (nickel-nitrilotriacetic acid resin, gel filtration on Superdex 200); not shown: His6, C-terminal, kept) MATNGMRPIHPGEILRDEFLMEFDISPAALARALKVSAPTVNDIVREQRGISADMAIRLGRYFDTSAQFWMNLQSEYSLATAYAANGKQIEHEIEPLLAHG", "values": [
      {"measurement": "stoichiometry N", "setting": "[2]", "result": 2}
    ]},
    {"molecule": "PhigBA 18-bp duplex (dsDNA) DNA 1: ACGCTTAACGTTAAGGGT DNA 2: ACCCTTAACGTTAAGCGT", "values": [
      {"measurement": "binding result", "setting": "[3]", "result": "binds"}
    ]}
  ]
}
